Experiments:
human FcγR1A = human FcγR1A (Homo sapiens, UniProt P12314); assay: SPR binding of Fc modified anti-CD3 IgG1 antibodies (Example 34); settings: anti-CD3 IgG1 antibody immobilized
Description: Surface plasmon resonance (SPR) experiments were performed to analyze the interaction of human activating receptors FcγR1A, FcγR3A (V158) and human C1q with IgG1 WT and antibody-Fc variants. Binding kinetics and their relative binding affinities were explored. The binding affinity is an important characteristic of an interaction between an antibody and an antigen. The equilibrium dissociation constant (KD) defines how strong the interaction is and therefore how much antibody-antigen complex is formed at equilibrium.
The knowledge of the antibody characteristics is not only essential during selection of the best therapeutic antibody candidate, but also important to understand the in vivo behavior and potentially predict cellular immune responses. […] Binding to human C1q was evaluated. […] SPR measurements were measured on a Biacore T200 (GE-Healthcare Life Sciences) controlled by Biacore T200 control software version 2.0.1. […]
The antibodies were covalently immobilized on a CM5 sensor chip whereas Fc gamma receptors or human C1q served as analytes in solution (FIG. 38). […] Zero concentration samples (blank runs) were measured for both methods to allow double-referencing during data evaluation.
Data were evaluated using the Biacore T200 evaluation software. […] In addition, the maximum response reached during the experiment was monitored. […]

[1] = Differential scanning calorimetry, melting temperature of Fc modified anti-CD3 antibodies (Example 35); format: physicochemical; settings: DSC, 1 mg/ml in PBS pH 7.4, anti-CD3 IgG1 Fc variants
Description: Calorimetric measurements were carried out on a differential scanning micro calorimeter (Nano DSC, TA instruments). The cell volume was 0.5 ml and the heating rate was 1° C./min. All proteins were used at a concentration of 1 mg/m in PBS (pH 7.4). The molar heat capacity of each protein was estimated by comparison with duplicate samples containing identical buffer from which the protein had been omitted. The partial molar heat capacities and melting curves were analyzed using standard procedure. Thermograms were baseline corrected and concentration normalized.

[2] = Aggregation propensity (% HMW) by analytical SEC of IgG1 anti-CD3 antibody and Fc variants (Example 35); format: physicochemical; settings: PBS pH 7.4, anti-CD3 antibodies
Description: Size exclusion chromatography measurements were performed to evaluate the aggregation propensity (% HMW) of IgG1 antibody and Fc modified derivatives. The produced and purified anti CD3 antibodies were applied to an analytical size exclusion chromatography column (SEC 200, GE Healthcare), equilibrated with PBS buffer pH 7.4.

[3] = tested on: Jurkat NFAT luciferized (JNL) cells with THP-1 cells; assay: Anti-CD3 NFAT signalling assay, JNL + THP-1 cells (Example 36); format: cell-based, human; settings: THP-1 cells preincubated with IFNg (100 u/mL, 48 hours)
Description: Jurkat reporter gene assay (RGA) for the nuclear factor of activated T-cells (NFAT) pathway was performed using Jurkat NFAT luciferized (JNL) cells and THP-1 cells (ATCC, TIB202). THP-1 cells express FcγRI, FcγRII, and FcγRIII. Cells were co-incubated for 6 hours at 37° C., 5% CO2 at a 5:1 effector to tumor ratio with each sample at the various concentrations depicted. An equal volume of ONE-Glo™ reagent (Promega, E6110) was added to the culture volume. Plate was shaken for 2 minutes, then incubated for an additional 8 minutes protected from light. For JNL+ THP+IFNg experiment, THP-1 cells were pre-treated with 100 u/mL IFNg for 48 hours at 37° C., 5% CO2 before co-culture. IFNg stimulation increases FcγRI expression. Luciferase activity was quantitated on the EnVision plate reader (PerkinElmer). Data was analyzed and fit to a 5 parameter-logistic curve using GraphPad Prism.

human FcγR1A, sequence (P12314 16-374): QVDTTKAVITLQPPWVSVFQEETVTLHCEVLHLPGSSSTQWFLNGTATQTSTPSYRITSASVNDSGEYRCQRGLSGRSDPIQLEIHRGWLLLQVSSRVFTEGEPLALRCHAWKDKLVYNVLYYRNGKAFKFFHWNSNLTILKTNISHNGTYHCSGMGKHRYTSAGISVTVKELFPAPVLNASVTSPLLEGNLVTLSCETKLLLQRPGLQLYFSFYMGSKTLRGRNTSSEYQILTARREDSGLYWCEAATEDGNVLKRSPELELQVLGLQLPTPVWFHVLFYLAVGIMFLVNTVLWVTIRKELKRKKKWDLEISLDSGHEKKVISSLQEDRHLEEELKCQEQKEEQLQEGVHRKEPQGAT

B1: GADAPA-IgG1: anti-CD3 IgG1 with G237A/D265A/P329A (antibody)
heavy: EVQLVESGGGLVQPGGSLKLSCAASGFTFNTYAMNWVRQASGKGLEWVGRIRSKYNNYATYYADSVKDRFTISRDDSKSTLYLQMNSLKTEDTAVYYCVRHGNFGNSYVSWFAYWGQGTLVTVSSASTKGPSVFPLAPSSKSTSGGTAALGCLVKDYFPEPVTVSWNSGALTSGVHTFPAVLQSSGLYSLSSVVTVPSSSLGTQTYICNVNHKPSNTKVDKRVEPKSCDKTHTCPPCPAPELLGAPSVFLFPPKPKDTLMISRTPEVTCVVVAVSHEDPEVKFNWYVDGVEVHNAKTKPREEQYNSTYRVVSVLTVLHQDWLNGKEYKCKVSNKALAAPIEKTISKAKGQPREPQVYTLPPSRDELTKNQVSLTCLVKGFYPSDIAVEWESNGQPENNYKTTPPVLDSDGSFFLYSKLTVDKSRWQQGNVFSCSVMHEALHNHYTQKSLSLSPGK
light: QAVVTQEPSLTVSPGGTVTLTCRSSTGAVTTSNYANWVQQKPGQAPRGLIGGTNKRAPWTPARFSGSLLGDKAALTLSGAQPEDEAEYFCALWYSNLWVFGGGTKLTVLGQPKAAPSVTLFPPSSEELQANKATLVCLISDFYPGAVTVAWKADSSPVKAGVETTTPSKQSNNKYAASSYLSLTPEQWKSHRSYSCQVTHEGSTVEKTVAPTECS
- Maximum response at 100 nM hFcgammaRIA (RU) (human FcγR1A): 16 RU
- Melting temperature (Tm) of CH2 domain [1]: 65 °C
- (%) higher molecular weight [2]: 8.0%
- NFAT activity (T-cell activation) [3]: some activity remaining

— patent US20240025993A1, “CD19 BINDING MOLECULES AND USES THEREOF” (NOVARTIS AG, priority 2020, published 2024)
